Results published in PMC8041999 (2021).

B1: FLAG-tagged KIR2DL2, full-length, wild type, on 293T cells [human] / HLA-C*03:04-GL9 tetramer (phycoerythrin-conjugated) [modified: biotin (enzymatically, with biotin ligase)] [human] (parent complex)
chain 1: HEGVHRKPSLLAHPGRLVKSEETVILQCWSDVRFEHFLLHREGKFKDTLHLIGEHHDGVSKANFSIGPMMQDLAGTYRCYGSVTHSPYQLSAPSDPLDIVITGLYEKPSLSAQPGPTVLAGESVTLSCSSRSSYDMYHLSREGEAHECRFSAGPKVNGTFQADFPLGPATHGGTYRCFGSFRDSPYEWSNSSDPLLVSVIGNPSNSWPSPTEPSSKTGNPRHLHILIGTSVVIILFILLFFLLHRWCSNKKNAAVMDQESAGNRTANSEDSDEQDPQEVTYTQLNHCVFTQRKITRPSQRPKTPPTDIIVYAELPNAESRSKVVSCP
chain 2: not shown
chain 3: not shown
chain 4: GAVDPLLAL
B2: FLAG-tagged KIR2DL2, full-length, wild type, on 293T cells [human] / HLA-C*07:02-RL9 tetramer (phycoerythrin-conjugated) [modified: biotin (enzymatically, with biotin ligase)] [human | not stated] (parent complex)
chain 1: B1 chain 1
chain 2: not shown
chain 3: not shown
chain 4: RYRPGTVAL
B3: FLAG-tagged KIR2DL3, full-length, wild type, on 293T cells [human] / HLA-C*03:04-GL9 tetramer (phycoerythrin-conjugated) [modified: biotin (enzymatically, with biotin ligase)] [human] (parent complex)
chain 1: HEGVHRKPSLLAHPGPLVKSEETVILQCWSDVRFQHFLLHREGKFKDTLHLIGEHHDGVSKANFSIGPMMQDLAGTYRCYGSVTHSPYQLSAPSDPLDIVITGLYEKPSLSAQPGPTVLAGESVTLSCSSRSSYDMYHLSREGEAHERRFSAGPKVNGTFQADFPLGPATHGGTYRCFGSFRDSPYEWSNSSDPLLVSVTGNPSNSWPSPTEPSSETGNPRHLHVLIGTSVVIILFILLLFFLLHRWCCNKKNAVVMDQEPAGNRTVNREDSDEQDPQEVTYAQLNHCVFTQRKITRPSQRPKTPPTDIIVYTELPNAEP
chain 2: not shown
chain 3: not shown
chain 4: GAVDPLLAL
B4: FLAG-tagged KIR2DL3, full-length, wild type, on 293T cells [human] / HLA-C*07:02-RL9 tetramer (phycoerythrin-conjugated) [modified: biotin (enzymatically, with biotin ligase)] [human | not stated] (parent complex)
chain 1: B3 chain 1
chain 2: not shown
chain 3: not shown
chain 4: RYRPGTVAL

Variants of: B1
Assay: flow cytometry, HLA tetramer staining of transfected 293T cells; percentage tetramer+ normalised to percentage FLAG+; read off a plot

ratio to parent	Variant
~0.93	chain 1 E106A
~1	chain 1 S132A
~0.02	chain 1 L104A
~1	chain 1 M70A
~0.88	chain 1 E21A
~0.17	chain 1 S133A
~0.95	chain 1 K44A
~1.1	chain 1 D72A
~0.03	chain 1 F45A
~0.01	chain 1 Y105A
~0.03	chain 1 D135A
~0.02	chain 1 D183A

Variants of: B2
Assay: as above

ratio to parent	Variant
~0.67	chain 1 D183A
~1.2	chain 1 E106A
~1	chain 1 E21A
~1.1	chain 1 K44A
~1	chain 1 S132A
~1.2	chain 1 S133A
~1.3	chain 1 D72A
~1.1	chain 1 F45A
~0.67	chain 1 L104A
~0.01	chain 1 Y105A
~1.2	chain 1 D135A
~0.92	chain 1 M70A

Variants of: B3
Assay: as above

ratio to parent	Variant
~0.82	chain 1 E106A
~0.1	chain 1 D135A
~0.04	chain 1 F45A
~1.2	chain 1 S132A
~1.1	chain 1 M70A
~0.92	chain 1 E21A
~1	chain 1 D72A
~0.05	chain 1 L104A
~0.6	chain 1 K44A
~0.57	chain 1 S133A
~0.05	chain 1 D183A
~0.02	chain 1 Y105A

Variants of: B4
Assay: as above

ratio to parent	Variant
~0.4	chain 1 L104A
~0.72	chain 1 F45A
~0.57	chain 1 D135A
~0.85	chain 1 E106A
~1.2	chain 1 S133A
~1.3	chain 1 M70A
~0.9	chain 1 K44A
~0.97	chain 1 E21A
~0.33	chain 1 D183A
~1.1	chain 1 S132A
~0.02	chain 1 Y105A
~1.1	chain 1 D72A
